# Results reported in patent US8257714B2, “Compositions and methods for immunotherapy of cancer and infectious diseases” (priority 2003, dated 2012).
# Marks after values point to notes of the source that are not given here.
# B1: ARP E1: recombinant E. tenella ARP from E. coli clone E1 (ATCC PTA-6120), SEQ ID NO:28 (protein, listed as Eimeria tenella)
# chain: MGEEADTQAWDTSVREWLVDTGRVFAGGVASIADGCRLFGAAVEGEGNAWEELVKTNYQIEVPQEDGTSISVDCDEAETLRAVVDGRAPNGVYIGGTKYKLAEVKRDFTFNDQNYDVAILGKNKGGGFLIKTPNENVVIALYDEEKEQNKADALTTALNFAEYLYQGGF
# Columns and labels:
# [1] = Stability of E1 in human serum albumin; type: physicochemical; details: for loss of activity: in the presence of HSA
# Description: Higher temperature studies also indicate remarkable stability.
# [2] = tested on: Mycobacterium tuberculosis Erdman strain; assay: Tuberculosis in mice; type: in vivo; details: 0.1, 1.0 or 10.0 ng i.p. days 1-5; day 0, 21 and 42
# Protocol: Groups of mice were exposed to Mycobacterium tuberculosis Erdman strain (M.tb) by inhalation on day 0. […] A control group of mice received vehicle only. On day 0, 21 and 42 the colony forming units (cfu) of M.tb in the lung were determined.
# [3] = Experimental autoimmune encephalomyelitis (EAE) model; type: in vivo, SJL mice
# Protocol: Treatments were given daily for 5 days. Linomide is a drug that is known to inhibit EAE and is used as a positive control. […] Severity of EAE is measured by means of the EAE score which starts at […] and increases to a score of 5 when death occurs. For ethical reasons mice are sacrificed when a score of 4 is reached.
# [4] = tested on: influenza virus A/NWS/33 (HINI); assay: Influenza infection in mice; type: in vivo, BALB/c mice; details: for Mean Day to Death ± SD: mice dying before day 21; for decline in arterial oxygen saturation: days 3-11
# Description: Specific pathogen-free female BALB/c mice were infected intranasally with an LD90 dose of influenza virus A/NWS/33 (HINI). […] Placebo treated mice received bovine serum albumin in phosphate-buffered saline. Mice were observed daily for death.
# [5] = 100 ng/day i.p., schedule 0, 3, 6
# [6] = 100 ng/day i.p., schedule −2, 0, 3, 6
# [7] = 1,000 ng/day i.p., schedule 0, 3, 6
molecule,measurement,setting,value
B1,loss in activity,"[1]; 1 μg/mL, HSA 1, 5 or 10% w/v, 4° C., 4, 11, 25, 39 and 54 days, preliminary",no loss in activity
same,storage time without loss of activity (DC assay),"[1]; 1 μg/ml with 3% HSA, 4° C.",at least 55 weeks
same,loss of activity,[1]; 2 hours 70° C.,No loss of activity
same,loss of activity,[1]; 6 hours at 55° C.,No loss of activity
same,loss of activity,[1]; 41 days at 37° C.,No loss of activity
same,cfu of M.tb in the lung versus control group,[2],no statistically significant difference
same,Day 15 EAE Score ± SD,[3]; 0.1 μg i.p. daily for 5 days from day 10,2.7 ± 1.3
same,Day 15 EAE Score ± SD,[3]; 1.0 μg i.p. daily for 5 days from day 10,1.5 ± 1.6
same,Day 15 EAE Score ± SD,[3]; 10.0 μg i.p. daily for 5 days from day 10,1.1 ± 1.5
same,Survive/Total,[4]; [5],2/10
same,Mean Day to Death ± SD,[4]; [5],12.1 ± 1.6 days
same,Survive/Total,[4]; [6],0/10
same,Mean Day to Death ± SD,[4]; [6],12.3 ± 1.2 days
same,decline in arterial oxygen saturation,"[4]; 1,000 ng",statistically significant reduction
same,Survive/Total,[4]; [7],3/10
same,Mean Day to Death ± SD,[4]; [7],12.7 ± 2.7 days
same,decline in arterial oxygen saturation,"[4]; 10,000 ng",statistically significant reduction
same,Survive/Total,"[4]; 10,000 ng/day i.p., schedule 0, 3, 6, P < 0.05",5/10*
same,Mean Day to Death ± SD,"[4]; 10,000 ng/day i.p., schedule 0, 3, 6",12.0 ± 1.4 days
